Test results as given in patent publication US20110311550A1.

How the values were obtained:
Assay in all cases: ELISA, lectin-captured E1E2 lysate, Ab 1 ug/ml
[1] = molecular target: E1E2 complex (H77) with E2 mutation L427A (HCV genotype 1a, isolate H77) (UniProt P27958)
[2] = molecular target: E1E2 complex (H77) with E1 mutation M318A (HCV genotype 1a, isolate H77) (UniProt P27958)
[3] = molecular target: E1E2 complex (H77) with E1 mutation S236A (HCV genotype 1a, isolate H77) (UniProt P27958)
[4] = molecular target: E1E2 complex (H77) with E1 mutation S327A (HCV genotype 1a, isolate H77) (UniProt P27958)
[5] = molecular target: E1E2 complex (H77) with E1 mutation S211A (HCV genotype 1a, isolate H77) (UniProt P27958)
[6] = molecular target: E1E2 complex (H77) with E1 mutation W326A (HCV genotype 1a, isolate H77) (UniProt P27958)
[7] = molecular target: E1E2 complex (H77) with E1 mutation H352A (HCV genotype 1a, isolate H77) (UniProt P27958)
[8] = molecular target: E1E2 complex (H77) with E1 mutation W239A (HCV genotype 1a, isolate H77) (UniProt P27958)
[9] = molecular target: E1E2 complex (H77) with E1 mutation P244A (HCV genotype 1a, isolate H77) (UniProt P27958)
[10] = molecular target: E1E2 complex (H77) with E1 mutation T292A (HCV genotype 1a, isolate H77) (UniProt P27958)
[11] = molecular target: E1E2 complex (H77) with E2 mutation A643G (HCV genotype 1a, isolate H77) (UniProt P27958)
[12] = molecular target: E1E2 complex (H77) with E2 mutation R639A (HCV genotype 1a, isolate H77) (UniProt P27958)
[13] = molecular target: E1E2 complex (H77) with E2 mutation T425A (HCV genotype 1a, isolate H77) (UniProt P27958)
[14] = molecular target: E1E2 complex (H77) with E1 mutation G354A (HCV genotype 1a, isolate H77) (UniProt P27958)
[15] = molecular target: E1E2 complex (H77) with E1 mutation W353A (HCV genotype 1a, isolate H77) (UniProt P27958)
[16] = molecular target: E1E2 complex (H77) with E2 mutation E637A (HCV genotype 1a, isolate H77) (UniProt P27958)
[17] = molecular target: E1E2 complex (H77) with E1 mutation D263A (HCV genotype 1a, isolate H77) (UniProt P27958)
[18] = molecular target: E1E2 complex (H77) with E1 mutation Y276A (HCV genotype 1a, isolate H77) (UniProt P27958)
[19] = molecular target: E1E2 complex (H77) with E2 mutation F442A (HCV genotype 1a, isolate H77) (UniProt P27958)
[20] = molecular target: E1E2 complex (H77) with E1 mutation D206A (HCV genotype 1a, isolate H77) (UniProt P27958)
[21] = molecular target: E1E2 complex (H77) with E1 mutation R296A (HCV genotype 1a, isolate H77) (UniProt P27958)
[22] = molecular target: E1E2 complex (H77) with E1 mutation P341A (HCV genotype 1a, isolate H77) (UniProt P27958)
[23] = molecular target: E1E2 complex (H77) with E1 mutation L221A (HCV genotype 1a, isolate H77) (UniProt P27958)
[24] = molecular target: E1E2 complex (H77) with E1 mutation T314A (HCV genotype 1a, isolate H77) (UniProt P27958)
[25] = molecular target: E1E2 complex (H77) with E1 mutation P224A (HCV genotype 1a, isolate H77) (UniProt P27958)
[26] = molecular target: E1E2 complex (H77) with E1 mutation T255A (HCV genotype 1a, isolate H77) (UniProt P27958)
[27] = molecular target: E1E2 complex (H77) with E1 mutation P295A (HCV genotype 1a, isolate H77) (UniProt P27958)
[28] = molecular target: E1E2 complex (H77) with E2 mutation N448A (HCV genotype 1a, isolate H77) (UniProt P27958)
[29] = molecular target: E1E2 complex (H77) with E1 mutation S294A (HCV genotype 1a, isolate H77) (UniProt P27958)
[30] = molecular target: E1E2 complex (H77) with E2 mutation A642G (HCV genotype 1a, isolate H77) (UniProt P27958)

mouse anti-E1 MAb A4 (antibody) showed a Binding relative to wt (%) [1] of 102%, a Binding relative to wt (%) [2] of 97% and a Binding relative to wt (%) [3] of 88%. It also gave a Binding relative to wt (%) [4] of 85%, a Binding relative to wt (%) [5] of 106% and a Binding relative to wt (%) [6] of 72%. The Binding relative to wt (%) [7] was 85%, the Binding relative to wt (%) [8] was 103% and the Binding relative to wt (%) [9] was 85%. It also gave a Binding relative to wt (%) [10] of 90%, a Binding relative to wt (%) [11] of 131% and a Binding relative to wt (%) [12] of 162%. For the same substance, the Binding relative to wt (%) [13] was 104%, the Binding relative to wt (%) [14] was 105% and the Binding relative to wt (%) [15] was 75%. It also gave a Binding relative to wt (%) [16] of 122%, a Binding relative to wt (%) [17] of 96% and a Binding relative to wt (%) [18] of 82%. For the same substance, the Binding relative to wt (%) [19] was 90%, the Binding relative to wt (%) [20] was 81% and the Binding relative to wt (%) [21] was 108%. It also gave a Binding relative to wt (%) [22] of 101%, a Binding relative to wt (%) [23] of 104% and a Binding relative to wt (%) [24] of 99%. The Binding relative to wt (%) [25] was 99%, the Binding relative to wt (%) [26] was 106% and the Binding relative to wt (%) [27] was 132%. It also gave a Binding relative to wt (%) [28] of 97%, a Binding relative to wt (%) [29] of 99% and a Binding relative to wt (%) [30] of 137%.
